In patent US20110288001A1, “BIOLOGICALLY ACTIVE PROTEINS ACTIVATABLE BY PEPTIDASE” (priority 2008, published 2011):

Columns and labels:
[1] = in vivo; cited from earlier work
[2] = tested on: PB0967, GLP1-ELP construct with Met-Ala-Ala at the N-terminus (Met removed by E. coli), not treated with DPP-IV
[3] = target: human GLP1 receptor (human) (UniProt P43220); assay: cell-based or functional assay
[4] = in vivo; cited from earlier work; remark: listed apart in the source

UniProt P43220, sequence (P43220 24-463): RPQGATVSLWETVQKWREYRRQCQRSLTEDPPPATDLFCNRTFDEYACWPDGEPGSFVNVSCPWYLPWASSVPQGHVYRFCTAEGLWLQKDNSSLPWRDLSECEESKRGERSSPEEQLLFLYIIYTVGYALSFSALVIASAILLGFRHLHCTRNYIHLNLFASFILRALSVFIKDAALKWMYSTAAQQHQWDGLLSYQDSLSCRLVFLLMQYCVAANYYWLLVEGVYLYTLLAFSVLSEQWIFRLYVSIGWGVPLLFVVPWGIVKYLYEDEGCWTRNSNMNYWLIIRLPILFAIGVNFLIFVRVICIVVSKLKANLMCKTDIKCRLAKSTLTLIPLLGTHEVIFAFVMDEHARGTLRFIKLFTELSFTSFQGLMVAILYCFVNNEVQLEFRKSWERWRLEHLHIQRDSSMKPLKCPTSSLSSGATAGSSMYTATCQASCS

Substance: HSDAVFTDNYTRLRKQMAVKKYLNSILN [VIP]
- half-life in the blood [1]: about two

Substance: dipeptidyl peptidase-4 (DPP-IV)
- gain of cAMP activity of the substrate after DPP-IV treatment (enzyme processing) [2]: is activated if it is first treated with DPP-IV to remove the remaining Ala-Ala and expose the N-terminal His of GLP1

Substance: Exendin-4 peptide
- EC50 in cAMP assay [3]: 1 nM

Substance: GLP-1: native glucagon-like peptide-1, physiological incretin originating from preproglucagon
- plasma half-life (t1/2) [4]: 1 to 2 min
